Reference: patent publication US20100151566A1

Assays:
[1] = target: Isoform 121 of human VEGF-A (Peprotech) (human) (UniProt P15692); test: ELISA, antigen coated at 5 µg/mL, KDR-Fc 0.5 µg/mL
[2] = target: Isoform 121 of human VEGF-A (Peprotech) (human) (UniProt P15692); test: ELISA, antigen coated at 5 µg/mL, KDR-Fc 1.0 µg/mL
[3] = target: Isoform 121 of human VEGF-A (Peprotech) (human) (UniProt P15692); test: ELISA, antigen coated at 5 µg/mL, KDR-Fc 0.25 µg/mL
[4] = target: Isoform 121 of human VEGF-A (Peprotech) (human) (UniProt P15692); test: ELISA, antigen coated at 5 µg/mL, KDR-Fc 0.125 µg/mL
[5] = target: Isoform 121 of human VEGF-A (Peprotech) (human) (UniProt P15692); test: ELISA on coated antigen, 20 µg/mL; negative control
[6] = target: P6447aa-VEGF fusion protein (human (VEGF part); Neisseria meningitidis (P64K part)); test: as above

Chain of soluble human receptor KDR-Fc (Sigma) (P35968 20-764 limits assumed): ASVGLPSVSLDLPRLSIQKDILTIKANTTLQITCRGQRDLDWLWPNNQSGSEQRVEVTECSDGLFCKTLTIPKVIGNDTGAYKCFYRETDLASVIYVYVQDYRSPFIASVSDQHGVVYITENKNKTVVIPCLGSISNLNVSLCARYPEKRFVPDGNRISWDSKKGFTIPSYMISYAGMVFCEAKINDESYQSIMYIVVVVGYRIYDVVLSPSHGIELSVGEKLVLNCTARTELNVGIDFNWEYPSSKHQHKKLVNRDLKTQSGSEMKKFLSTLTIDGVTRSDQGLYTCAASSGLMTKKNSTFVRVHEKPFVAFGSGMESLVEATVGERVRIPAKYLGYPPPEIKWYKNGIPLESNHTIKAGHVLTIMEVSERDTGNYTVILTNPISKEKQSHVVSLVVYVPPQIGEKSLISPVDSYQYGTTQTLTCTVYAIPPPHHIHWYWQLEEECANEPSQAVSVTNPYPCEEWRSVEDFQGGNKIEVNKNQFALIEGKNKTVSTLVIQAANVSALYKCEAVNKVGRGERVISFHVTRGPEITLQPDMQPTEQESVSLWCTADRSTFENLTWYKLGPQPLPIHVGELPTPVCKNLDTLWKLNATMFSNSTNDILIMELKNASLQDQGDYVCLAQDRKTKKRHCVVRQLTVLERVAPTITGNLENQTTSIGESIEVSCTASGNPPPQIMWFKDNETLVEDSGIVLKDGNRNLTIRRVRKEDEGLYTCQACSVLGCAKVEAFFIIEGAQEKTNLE
Chain of Isoform 121 of human VEGF-A (Peprotech) (human) (P15692 other isoform, or with tags, fused parts or gaps): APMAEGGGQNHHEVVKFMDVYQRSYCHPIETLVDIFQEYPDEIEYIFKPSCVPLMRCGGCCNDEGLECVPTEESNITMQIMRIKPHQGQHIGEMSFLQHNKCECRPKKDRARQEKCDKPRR

soluble human receptor KDR-Fc (Sigma) (from UniProt P35968 20-764) (Fc fusion)
absorbance at 492 nm [1]: 1.27 OD 492 nm | absorbance at 492 nm [2]: 1.48 OD 492 nm | absorbance at 492 nm [3]: 1.04 OD 492 nm | absorbance at 492 nm [4]: 0.76 OD 492 nm

TheraCIM (anti EGF receptor humanized IgG1 antibody; CIMAB SA, Havana)
absorbance at 492 nm [5]: 0.097 OD 492 nm | absorbance at 492 nm [6]: 0.112 OD 492 nm
